Measurements: PMC9352680, “A comprehensive thermodynamic model for RNA binding by the Saccharomyces cerevisiae Pumilio protein PUF4”

T1: PUF4 RNA-binding domain (Saccharomyces cerevisiae, UniProt P25339 537-888)
T1 sequence: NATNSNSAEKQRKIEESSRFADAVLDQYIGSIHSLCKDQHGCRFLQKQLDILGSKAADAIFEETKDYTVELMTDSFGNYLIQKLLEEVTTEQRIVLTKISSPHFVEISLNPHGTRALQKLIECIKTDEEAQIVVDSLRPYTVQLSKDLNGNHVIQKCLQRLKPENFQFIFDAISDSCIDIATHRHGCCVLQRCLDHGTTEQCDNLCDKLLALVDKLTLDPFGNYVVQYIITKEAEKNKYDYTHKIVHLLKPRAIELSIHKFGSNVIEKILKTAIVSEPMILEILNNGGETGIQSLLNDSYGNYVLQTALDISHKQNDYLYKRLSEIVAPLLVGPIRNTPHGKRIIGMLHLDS


biological target: T1, PUF4 RNA-binding domain; assay: Mg; RNA-MaP; 20 mM Na-HEPES pH 7.4, 30 mM KOAc, 0.75 mM MgCl2, 0.1% Tween-20, 5% glycerol, 0.1 mg/mL BSA, 2 mM DTT; 25 C; 0.0125-409.6 nM protein; settings: tags: N-His6-TEV cleaved; C-SNAP kept, Cy3B-labelled; label: tethered on chip by stalled RNA polymerase

Binder | Kd [nM]
UCUCUUUGUACCAAGUCUCUU (ssRNA) [Ic_S1_P4E.1_K4.1_C4.1_H4.1_A4.1_[T5C]_[A6C]_[T7A]_F4.1_[T8A]_[A9G]_T4.1] | 755
UCUCUUUGUACGAACUCUCUU (ssRNA) [Ic_S1_P4E.1_K4.1_C4.1_H4.1_A4.1_[T5C]_[A6G]_[T7A]_F4.1_[T8A]_[A9C]_T4.1] | 985
UCUCUUUGUACGAUGUCUCUU (ssRNA) [Ic_S1_P4E.1_K4.1_C4.1_H4.1_A4.1_[T5C]_[A6G]_[T7A]_F4.1_[A9G]_T4.1] | 23.8
UCUCUUUUUAUAAAUCUCUU (ssRNA) [Ib_S1_P3E.1_K3.1_C3.1_H3.1_[G2T]_A3.1_F3.1_[T7A]_T3.1] | > 2300
UCUCUUUGUACGUACUCUCUU (ssRNA) [Ic_S1_P4E.1_K4.1_C4.1_H4.1_A4.1_[T5C]_[A6G]_F4.1_[T8A]_[A9C]_T4.1] | 1560
UCUCUUUGUGUACAUCUCUU (ssRNA) [Ib_S1_P3E.1_K3.1_C3.1_H3.1_[A4G]_A3.1_F3.1_[T7C]_T3.1] | 38.9
UCUCUUUGUACCCUCUCUCUU (ssRNA) [Ic_S1_P4E.1_K4.1_C4.1_H4.1_A4.1_[T5C]_[A6C]_[T7C]_F4.1_[A9C]_T4.1] | 41.9
UCUCUUUGUACCGAUUCUCUU (ssRNA) [Ic_S1_P4E.1_K4.1_C4.1_H4.1_A4.1_[T5C]_[A6C]_[T7G]_F4.1_[T8A]_[A9T]_T4.1] | 519
UCUCUUUGUACCGUCUCUCUU (ssRNA) [Ic_S1_P4E.1_K4.1_C4.1_H4.1_A4.1_[T5C]_[A6C]_[T7G]_F4.1_[A9C]_T4.1] | 1140
UCUCUUUGUACCAUGUCUCUU (ssRNA) [Ic_S1_P4E.1_K4.1_C4.1_H4.1_A4.1_[T5C]_[A6C]_[T7A]_F4.1_[A9G]_T4.1] | 3.4
UCUCUUUGUACCGGCUCUCUU (ssRNA) [Ic_S1_P4E.1_K4.1_C4.1_H4.1_A4.1_[T5C]_[A6C]_[T7G]_F4.1_[T8G]_[A9C]_T4.1] | > 2300
UCUCUUUGUACGUGAUCUCUU (ssRNA) [Ic_S1_P4E.1_K4.1_C4.1_H4.1_A4.1_[T5C]_[A6G]_F4.1_[T8G]_T4.1] | 629
UCUCUUUGUACGAUAUCUCUU (ssRNA) [Ic_S1_P4E.1_K4.1_C4.1_H4.1_A4.1_[T5C]_[A6G]_[T7A]_F4.1_T4.1] | 2.75
UCUCUUUGUACGCCAUCUCUU (ssRNA) [Ic_S1_P4E.1_K4.1_C4.1_H4.1_A4.1_[T5C]_[A6G]_[T7C]_F4.1_[T8C]_T4.1] | 29.5
UCUCUUUGUACCGCGUCUCUU (ssRNA) [Ic_S1_P4E.1_K4.1_C4.1_H4.1_A4.1_[T5C]_[A6C]_[T7G]_F4.1_[T8C]_[A9G]_T4.1] | 1120
UCUCUUUGUACGUUCUCUCUU (ssRNA) [Ic_S1_P4E.1_K4.1_C4.1_H4.1_A4.1_[T5C]_[A6G]_F4.1_[A9C]_T4.1] | 29.9
UCUCUUUGUACCCAGUCUCUU (ssRNA) [Ic_S1_P4E.1_K4.1_C4.1_H4.1_A4.1_[T5C]_[A6C]_[T7C]_F4.1_[T8A]_[A9G]_T4.1] | 1230
UCUCUUUGUACCCCUUCUCUU (ssRNA) [Ic_S1_P4E.1_K4.1_C4.1_H4.1_A4.1_[T5C]_[A6C]_[T7C]_F4.1_[T8C]_[A9T]_T4.1] | 808
UCUCUUUGUACGUAGUCUCUU (ssRNA) [Ic_S1_P4E.1_K4.1_C4.1_H4.1_A4.1_[T5C]_[A6G]_F4.1_[T8A]_[A9G]_T4.1] | 93.5
UCUCUUUGUACCCGCUCUCUU (ssRNA) [Ic_S1_P4E.1_K4.1_C4.1_H4.1_A4.1_[T5C]_[A6C]_[T7C]_F4.1_[T8G]_[A9C]_T4.1] | 1420

Binder | Kd [nM]
UCUCUUUGUACCAGCUCUCUU (ssRNA) [Ic_S1_P4E.1_K4.1_C4.1_H4.1_A4.1_[T5C]_[A6C]_[T7A]_F4.1_[T8G]_[A9C]_T4.1] | 913
UCUCUUUGUACCGCCUCUCUU (ssRNA) [Ic_S1_P4E.1_K4.1_C4.1_H4.1_A4.1_[T5C]_[A6C]_[T7G]_F4.1_[T8C]_[A9C]_T4.1] | 1630
UCUCUUUGUACCAAUUCUCUU (ssRNA) [Ic_S1_P4E.1_K4.1_C4.1_H4.1_A4.1_[T5C]_[A6C]_[T7A]_F4.1_[T8A]_[A9T]_T4.1] | 103
UCUCUUUGUACCAUUUCUCUU (ssRNA) [Ic_S1_P4E.1_K4.1_C4.1_H4.1_A4.1_[T5C]_[A6C]_[T7A]_F4.1_[A9T]_T4.1] | 9.07
UCUCUUUGUACCCCCUCUCUU (ssRNA) [Ic_S1_P4E.1_K4.1_C4.1_H4.1_A4.1_[T5C]_[A6C]_[T7C]_F4.1_[T8C]_[A9C]_T4.1] | 1090
UCUCUUUGUACGUUGUCUCUU (ssRNA) [Ic_S1_P4E.1_K4.1_C4.1_H4.1_A4.1_[T5C]_[A6G]_F4.1_[A9G]_T4.1] | 40.5
UCUCUUUGUACGCUUUCUCUU (ssRNA) [Ic_S1_P4E.1_K4.1_C4.1_H4.1_A4.1_[T5C]_[A6G]_[T7C]_F4.1_[A9T]_T4.1] | 51
UCUCUUUGUACGCACUCUCUU (ssRNA) [Ic_S1_P4E.1_K4.1_C4.1_H4.1_A4.1_[T5C]_[A6G]_[T7C]_F4.1_[T8A]_[A9C]_T4.1] | 669
UCUCUUUGUACCCUUUCUCUU (ssRNA) [Ic_S1_P4E.1_K4.1_C4.1_H4.1_A4.1_[T5C]_[A6C]_[T7C]_F4.1_[A9T]_T4.1] | 26.8
UCUCUUUGUACCCGGUCUCUU (ssRNA) [Ic_S1_P4E.1_K4.1_C4.1_H4.1_A4.1_[T5C]_[A6C]_[T7C]_F4.1_[T8G]_[A9G]_T4.1] | > 2300
UCUCUUUGUACGCAUUCUCUU (ssRNA) [Ic_S1_P4E.1_K4.1_C4.1_H4.1_A4.1_[T5C]_[A6G]_[T7C]_F4.1_[T8A]_[A9T]_T4.1] | 425
UCUCUUUGUACGCAGUCUCUU (ssRNA) [Ic_S1_P4E.1_K4.1_C4.1_H4.1_A4.1_[T5C]_[A6G]_[T7C]_F4.1_[T8A]_[A9G]_T4.1] | 1140
UCUCUUUGUACCGUAUCUCUU (ssRNA) [Ic_S1_P4E.1_K4.1_C4.1_H4.1_A4.1_[T5C]_[A6C]_[T7G]_F4.1_T4.1] | 23.4
UCUCUUUGUACCAGGUCUCUU (ssRNA) [Ic_S1_P4E.1_K4.1_C4.1_H4.1_A4.1_[T5C]_[A6C]_[T7A]_F4.1_[T8G]_[A9G]_T4.1] | 1790
UCUCUUUGUACGUAUUCUCUU (ssRNA) [Ic_S1_P4E.1_K4.1_C4.1_H4.1_A4.1_[T5C]_[A6G]_F4.1_[T8A]_[A9T]_T4.1] | 96.3
UCUCUUUGUACCCCGUCUCUU (ssRNA) [Ic_S1_P4E.1_K4.1_C4.1_H4.1_A4.1_[T5C]_[A6C]_[T7C]_F4.1_[T8C]_[A9G]_T4.1] | > 2300
UCUCUUUGUACGUUUUCUCUU (ssRNA) [Ic_S1_P4E.1_K4.1_C4.1_H4.1_A4.1_[T5C]_[A6G]_F4.1_[A9T]_T4.1] | 37.8
UCUCUUUGUACCGUGUCUCUU (ssRNA) [Ic_S1_P4E.1_K4.1_C4.1_H4.1_A4.1_[T5C]_[A6C]_[T7G]_F4.1_[A9G]_T4.1] | 515
UCUCUUUGUACCAACUCUCUU (ssRNA) [Ic_S1_P4E.1_K4.1_C4.1_H4.1_A4.1_[T5C]_[A6C]_[T7A]_F4.1_[T8A]_[A9C]_T4.1] | 271
UCUCUUUGUACCGUUUCUCUU (ssRNA) [Ic_S1_P4E.1_K4.1_C4.1_H4.1_A4.1_[T5C]_[A6C]_[T7G]_F4.1_[A9T]_T4.1] | 142

Binder | Kd [nM]
UCUCUUUGUACCCAAUCUCUU (ssRNA) [Ic_S1_P4E.1_K4.1_C4.1_H4.1_A4.1_[T5C]_[A6C]_[T7C]_F4.1_[T8A]_T4.1] | 833
UCUCUUUGUACCCUAUCUCUU (ssRNA) [Ic_S1_P4E.1_K4.1_C4.1_H4.1_A4.1_[T5C]_[A6C]_[T7C]_F4.1_T4.1] | 7.5
UCUCUUUGUACCACGUCUCUU (ssRNA) [Ic_S1_P4E.1_K4.1_C4.1_H4.1_A4.1_[T5C]_[A6C]_[T7A]_F4.1_[T8C]_[A9G]_T4.1] | 652
UCUCUUUAUAUACAUCUCUU (ssRNA) [Ib_S1_P3E.1_K3.1_C3.1_H3.1_[G2A]_A3.1_F3.1_[T7C]_T3.1] | > 2300
UCUCUUUGUACGAUUUCUCUU (ssRNA) [Ic_S1_P4E.1_K4.1_C4.1_H4.1_A4.1_[T5C]_[A6G]_[T7A]_F4.1_[A9T]_T4.1] | 22.7
UCUCUUUGUACCCUGUCUCUU (ssRNA) [Ic_S1_P4E.1_K4.1_C4.1_H4.1_A4.1_[T5C]_[A6C]_[T7C]_F4.1_[A9G]_T4.1] | 32.7
UCUCUUUCUAUACAUCUCUU (ssRNA) [Ib_S1_P3E.1_K3.1_C3.1_H3.1_[G2C]_A3.1_F3.1_[T7C]_T3.1] | > 2300
UCUCUUUGCAUACAUCUCUU (ssRNA) [Ib_S1_P3E.1_K3.1_C3.1_H3.1_[T3C]_A3.1_F3.1_[T7C]_T3.1] | > 2300
UCUCUUUGUACGUGCUCUCUU (ssRNA) [Ic_S1_P4E.1_K4.1_C4.1_H4.1_A4.1_[T5C]_[A6G]_F4.1_[T8G]_[A9C]_T4.1] | 466
UCUCUUUGUACGUCCUCUCUU (ssRNA) [Ic_S1_P4E.1_K4.1_C4.1_H4.1_A4.1_[T5C]_[A6G]_F4.1_[T8C]_[A9C]_T4.1] | 482
UCUCUUUGUACGUGUUCUCUU (ssRNA) [Ic_S1_P4E.1_K4.1_C4.1_H4.1_A4.1_[T5C]_[A6G]_F4.1_[T8G]_[A9T]_T4.1] | 110
UCUCUUUGUACCCAUUCUCUU (ssRNA) [Ic_S1_P4E.1_K4.1_C4.1_H4.1_A4.1_[T5C]_[A6C]_[T7C]_F4.1_[T8A]_[A9T]_T4.1] | 517
UCUCUUUGUACGUCUUCUCUU (ssRNA) [Ic_S1_P4E.1_K4.1_C4.1_H4.1_A4.1_[T5C]_[A6G]_F4.1_[T8C]_[A9T]_T4.1] | 1520
UCUCUUUGUACGCAAUCUCUU (ssRNA) [Ic_S1_P4E.1_K4.1_C4.1_H4.1_A4.1_[T5C]_[A6G]_[T7C]_F4.1_[T8A]_T4.1] | 139
UCUCUUUGUACCAAAUCUCUU (ssRNA) [Ic_S1_P4E.1_K4.1_C4.1_H4.1_A4.1_[T5C]_[A6C]_[T7A]_F4.1_[T8A]_T4.1] | 68
UCUCUUUGUACGUCAUCUCUU (ssRNA) [Ic_S1_P4E.1_K4.1_C4.1_H4.1_A4.1_[T5C]_[A6G]_F4.1_[T8C]_T4.1] | 118
UCUCUUUGUACCACCUCUCUU (ssRNA) [Ic_S1_P4E.1_K4.1_C4.1_H4.1_A4.1_[T5C]_[A6C]_[T7A]_F4.1_[T8C]_[A9C]_T4.1] | 573
UCUCUUUGUACCGCUUCUCUU (ssRNA) [Ic_S1_P4E.1_K4.1_C4.1_H4.1_A4.1_[T5C]_[A6C]_[T7G]_F4.1_[T8C]_[A9T]_T4.1] | 741
UCUCUUUGUACCCGUUCUCUU (ssRNA) [Ic_S1_P4E.1_K4.1_C4.1_H4.1_A4.1_[T5C]_[A6C]_[T7C]_F4.1_[T8G]_[A9T]_T4.1] | 842
